From patent US20260049138A1 (Chugai, published 2026)
Numbering of substitutions follows the chain as printed. Names may count otherwise. Each block holds one binder with its values, some of them ahead of it.

Target: T1, CD3ε homodimer protein (human, UniProt P07766 23-126, limits assumed)
T1 construct: also called CD3 (CD3ε)
Test: SPR Biacore T200, CD3ε homodimer on chip;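 further: Light-chain single-residue variant antibodies injected over amine-coupled CD3ε homodimer on a CM4 chip at 25 °C, bound amount divided by that of the GLS3000-containing antibody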

T1 sequence (P07766 23-126 limits assumed): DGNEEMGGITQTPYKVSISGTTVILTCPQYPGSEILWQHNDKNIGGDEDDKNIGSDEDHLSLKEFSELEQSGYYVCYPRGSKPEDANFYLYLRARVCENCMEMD

B1: GLS3000 S56N one-arm antibody (antibody, human IgG1, kappa, L234A L235A, N297A, name in Kabat numbering)
heavy: QVQLVESGGGVVQPGRSLRLSCAASGFTFSNAWMHWVRQAPGKGLEWVAQIKAKSNNYATYYAESVKGRFTISRDDSKNSLYLQMNSLKTEDTAVYYCRYVHYGAYYGVDAWGQGTTVTVSSASTKGPSVFPLAPSSKSTSGGTAALGCLVKDYFPEPVTVSWNSGALTSGVHTFPAVLQSSGLYSLSSVVTVPSSSLGTQTYICNVNHKPSNTKVDKKVEPKSCDKTHTCPPCPAPEAAGGPSVFLFPPKPKDTLMISRTPEVTCVVVDVSHEDPEVKFNWYVDGVEVHNAKTKPREEQYASTYRVVSVLTVLHQDWLNGKEYKCKVSNKALPAPIEKTISKAKGQPREPQVYTLPPSRCELTKNQVSLSCAVKGFYPSDIAVEWESNGQPENNYKTTPPVLDSDGSFFLVSKLTVDKSRWQQGNVFSCSVMHEALHNHYTQKSLSLSPDYKDDDDK
chain: EPKSSDKTHTCPPCPAPELLGGPSVFLFPPKPKDTLMISRTPEVTCVVVDVSHEDPEVKFNWYVDGVEVHNAKTKPREEQYNSTYRVVSVLTVLHQDWLNGKEYKCKVSNKALPAPIEKTISKAKGQPREPQVCTLPPSRDELTKNQVSLWCLVKGFYPSDIAVEWESNGQPENNYKTTPPVLDSDGSFFLYSKLTVDKSRWQQGNVFSCSVMHEALHNRYTQKSLSLSP
light: DIVMTQSPLSLPVTPGEPASISCRSSQSLVHSNRNTYLHWYQQKPGQAPRLLIYKVSNRFNGVPDRFSGSGSGTDFTLKISRVEAEDVGVYYCGQGTQVPYTFGQGTKLEIKRTVAAPSVFIFPPSDEQLKSGTASVVCLLNNFYPREAKVQWKVDNALQSGNSQESVTEQDSKDSTYSLSSTLTLSKADYEKHKVYACEVTHQGLSSPVTKSFNRGEC
ratio of amount bound vs unaltered GLS3000: 0.92

B4: GLS3000 T92E one-arm antibody (antibody, human IgG1, kappa, L234A L235A, N297A, name in Kabat numbering)
heavy: B1 heavy
chain: B1 chain
light: B1 light with N61S, T97E
ratio of amount bound vs unaltered GLS3000: 0.17

B7: GLS3000 S56W one-arm antibody (antibody, human IgG1, kappa, L234A L235A, N297A, name in Kabat numbering)
heavy: B1 heavy
chain: B1 chain
light: B1 light with N61W
ratio of amount bound vs unaltered GLS3000: 1.38

B8: GLS3000 S56T one-arm antibody (antibody, human IgG1, kappa, L234A L235A, N297A, name in Kabat numbering)
heavy: B1 heavy
chain: B1 chain
light: B1 light with N61T
ratio of amount bound vs unaltered GLS3000: 0.97

B10: GLS3000 S56V one-arm antibody (antibody, human IgG1, kappa, L234A L235A, N297A, name in Kabat numbering)
heavy: B1 heavy
chain: B1 chain
light: B1 light with N61V
ratio of amount bound vs unaltered GLS3000: 0.95

B13: GLS3000 T31D one-arm antibody (antibody, human IgG1, kappa, L234A L235A, N297A, name in Kabat numbering)
heavy: B1 heavy
chain: B1 chain
light: B1 light with T36D, N61S
ratio of amount bound vs unaltered GLS3000: 0.23

B14: GLS3000 S56Q one-arm antibody (antibody, human IgG1, kappa, L234A L235A, N297A, name in Kabat numbering)
heavy: B1 heavy
chain: B1 chain
light: B1 light with N61Q
ratio of amount bound vs unaltered GLS3000: 1.04

B17: GLS3000 T31E one-arm antibody (antibody, human IgG1, kappa, L234A L235A, N297A, name in Kabat numbering)
heavy: B1 heavy
chain: B1 chain
light: B1 light with T36E, N61S
ratio of amount bound vs unaltered GLS3000: 0.49

B18: GLS3000 T31N one-arm antibody (antibody, human IgG1, kappa, L234A L235A, N297A, name in Kabat numbering)
heavy: B1 heavy
chain: B1 chain
light: B1 light with T36N, N61S
ratio of amount bound vs unaltered GLS3000: 0.32

B20: GLS3000 T31K one-arm antibody (antibody, human IgG1, kappa, L234A L235A, N297A, name in Kabat numbering)
heavy: B1 heavy
chain: B1 chain
light: B1 light with T36K, N61S
ratio of amount bound vs unaltered GLS3000: 1.04

B22: GLS3000 T92D one-arm antibody (antibody, human IgG1, kappa, L234A L235A, N297A, name in Kabat numbering)
heavy: B1 heavy
chain: B1 chain
light: B1 light with N61S, T97D
ratio of amount bound vs unaltered GLS3000: 0.18

B25: GLS3000 S56Y one-arm antibody (antibody, human IgG1, kappa, L234A L235A, N297A, name in Kabat numbering)
heavy: B1 heavy
chain: B1 chain
light: B1 light with N61Y
ratio of amount bound vs unaltered GLS3000: 1.46

B27: GLS3000 S56R one-arm antibody (antibody, human IgG1, kappa, L234A L235A, N297A, name in Kabat numbering)
heavy: B1 heavy
chain: B1 chain
light: B1 light with N61R
ratio of amount bound vs unaltered GLS3000: 1.36

B28: GLS3000 S56P one-arm antibody (antibody, human IgG1, kappa, L234A L235A, N297A, name in Kabat numbering)
heavy: B1 heavy
chain: B1 chain
light: B1 light with N61P
ratio of amount bound vs unaltered GLS3000: 0.95

B30: GLS3000 T92A one-arm antibody (antibody, human IgG1, kappa, L234A L235A, N297A, name in Kabat numbering)
heavy: B1 heavy
chain: B1 chain
light: B1 light with N61S, T97A
ratio of amount bound vs unaltered GLS3000: 0.63

B31: GLS3000 T31I one-arm antibody (antibody, human IgG1, kappa, L234A L235A, N297A, name in Kabat numbering)
heavy: B1 heavy
chain: B1 chain
light: B1 light with T36I, N61S
ratio of amount bound vs unaltered GLS3000: 0.97

B34: GLS3000 T31P one-arm antibody (antibody, human IgG1, kappa, L234A L235A, N297A, name in Kabat numbering)
heavy: B1 heavy
chain: B1 chain
light: B1 light with T36P, N61S
ratio of amount bound vs unaltered GLS3000: 0.31

More lines, now with the values ahead:

ratio of amount bound vs unaltered GLS3000: 0.61
B2: GLS3000 V27cE one-arm antibody (antibody, human IgG1, kappa, L234A L235A, N297A, name in Kabat numbering)
heavy: B1 heavy
chain: B1 chain
light: B1 light with V30E, N61S

ratio of amount bound vs unaltered GLS3000: 0.64
B3: GLS3000 V51E one-arm antibody (antibody, human IgG1, kappa, L234A L235A, N297A, name in Kabat numbering)
heavy: B1 heavy
chain: B1 chain
light: B1 light with V56E, N61S

ratio of amount bound vs unaltered GLS3000: 0.34
B5: GLS3000 T92I one-arm antibody (antibody, human IgG1, kappa, L234A L235A, N297A, name in Kabat numbering)
heavy: B1 heavy
chain: B1 chain
light: B1 light with N61S, T97I

ratio of amount bound vs unaltered GLS3000: 0.3
B6: GLS3000 V27cP one-arm antibody (antibody, human IgG1, kappa, L234A L235A, N297A, name in Kabat numbering)
heavy: B1 heavy
chain: B1 chain
light: B1 light with V30P, N61S

ratio of amount bound vs unaltered GLS3000: 0.33
B9: GLS3000 V51D one-arm antibody (antibody, human IgG1, kappa, L234A L235A, N297A, name in Kabat numbering)
heavy: B1 heavy
chain: B1 chain
light: B1 light with V56D, N61S

ratio of amount bound vs unaltered GLS3000: 0.84
B11: GLS3000 V51G one-arm antibody (antibody, human IgG1, kappa, L234A L235A, N297A, name in Kabat numbering)
heavy: B1 heavy
chain: B1 chain
light: B1 light with V56G, N61S

ratio of amount bound vs unaltered GLS3000: 0.31
B12: GLS3000 T97P one-arm antibody (antibody, human IgG1, kappa, L234A L235A, N297A, name in Kabat numbering)
heavy: B1 heavy
chain: B1 chain
light: B1 light with N61S, T102P

ratio of amount bound vs unaltered GLS3000: 0.42
B15: GLS3000 T92L one-arm antibody (antibody, human IgG1, kappa, L234A L235A, N297A, name in Kabat numbering)
heavy: B1 heavy
chain: B1 chain
light: B1 light with N61S, T97L

ratio of amount bound vs unaltered GLS3000: 0.33
B16: GLS3000 T92Y one-arm antibody (antibody, human IgG1, kappa, L234A L235A, N297A, name in Kabat numbering)
heavy: B1 heavy
chain: B1 chain
light: B1 light with N61S, T97Y

ratio of amount bound vs unaltered GLS3000: 0.26
B19: GLS3000 T92P one-arm antibody (antibody, human IgG1, kappa, L234A L235A, N297A, name in Kabat numbering)
heavy: B1 heavy
chain: B1 chain
light: B1 light with N61S, T97P

ratio of amount bound vs unaltered GLS3000: 0.77
B21: GLS3000 V27cY one-arm antibody (antibody, human IgG1, kappa, L234A L235A, N297A, name in Kabat numbering)
heavy: B1 heavy
chain: B1 chain
light: B1 light with V30Y, N61S

ratio of amount bound vs unaltered GLS3000: 0.84
B23: GLS3000 V27cL one-arm antibody (antibody, human IgG1, kappa, L234A L235A, N297A, name in Kabat numbering)
heavy: B1 heavy
chain: B1 chain
light: B1 light with V30L, N61S

ratio of amount bound vs unaltered GLS3000: 0.96
B24: GLS3000 V27cI one-arm antibody (antibody, human IgG1, kappa, L234A L235A, N297A, name in Kabat numbering)
heavy: B1 heavy
chain: B1 chain
light: B1 light with V30I, N61S

ratio of amount bound vs unaltered GLS3000: 0.81
B26: GLS3000 V51I one-arm antibody (antibody, human IgG1, kappa, L234A L235A, N297A, name in Kabat numbering)
heavy: B1 heavy
chain: B1 chain
light: B1 light with V56I, N61S

ratio of amount bound vs unaltered GLS3000: 0.96
B29: GLS3000 T92S one-arm antibody (antibody, human IgG1, kappa, L234A L235A, N297A, name in Kabat numbering)
heavy: B1 heavy
chain: B1 chain
light: B1 light with N61S, T97S

ratio of amount bound vs unaltered GLS3000: 0.32
B32: GLS3000 V27cD one-arm antibody (antibody, human IgG1, kappa, L234A L235A, N297A, name in Kabat numbering)
heavy: B1 heavy
chain: B1 chain
light: B1 light with V30D, N61S

ratio of amount bound vs unaltered GLS3000: 0.51
B33: GLS3000 V27cS one-arm antibody (antibody, human IgG1, kappa, L234A L235A, N297A, name in Kabat numbering)
heavy: B1 heavy
chain: B1 chain
light: B1 light with V30S, N61S
